From the supplement of paper PMC10567573

B1: CDC25A (parent)
chain: TVAGKHQDLKYISPEIMASVLNGK

Variants of: B1
Assay: protein stability index of a GFP-peptide fusion (GPS, HEK-293T) (PSI 1-6); higher = more stable
Conditions: c terminus: a fixed tail appended
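Also: lentivirally expressed fusions sorted by FACS into six bins by GFP to DsRed ratio, PSI derived from sequencing read proportions per bin multiplied by bin number.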

Protein stability index: each site, then its substitutions
A3: T 3.31; V 3.38; Q 2.7; S 2.93; P 3.52; W 2.16; R 2.85; Y 2.79
H6: A 3.73; P 3.38; V 2.45; D 3.92; L 2.13; Y 3.25; R 2.81; K 3.27; W 2.24; E 3.66; S 2.94; I 2.63; M 2.26; F 2.75; C 2.57; G 3.06; N 2.96; T 3.24; Q 3.43
V20: T 3.75; P 3.64; R 3.99; L 2.84; G 3.79; M 3.56; S 4.11; A 3.56; H 3.33; I 2.63; F 2.92; D 4.35; W 2.84; E 4.1; K 3.73; C 2.93; N 3.38; Q 3.68; Y 2.72
M17: I 2.71; Y 3.1; G 3.88; F 2.78; A 3.96; T 3.22; S 4.12; D 3.89; V 3.42; L 2.64; E 4.21; W 2.46; R 3.87; N 3.74; H 3.8; P 4; K 3.96; Q 3.73; C 3.42
G4: D 3.27; K 3.06; P 3.44; R 3.5; Y 3.09; C 2.82; H 3.35; S 3.39; V 3.38; W 2.27; Q 3.42; E 3.78; N 3.54; M 2.89; I 2.68; F 2.38; L 3.16; A 2.82; T 3.11
L9: E 3.94; M 3.29; S 3.33; P 3.37; W 2.81; F 3.1; Q 3.71; G 3.77; Y 3.08; H 3.65; K 3.74; V 3.27; I 3.25; D 4.09; A 3.44; R 3.51; C 3.13; N 3.72; T 3.47
S19: R 3.29; D 3.41; H 2.88; L 1.86; E 4.06; K 3.24; V 2.13; M 2.38; C 2.46; F 2.01; N 3.61; Y 1.88; G 2.77; A 3.1; P 3.65; I 2.16; W 1.94; Q 3.28; T 2.83
K10: I 1.69; C 2.52; Y 1.76; A 2.99; P 3.21; V 2.24; D 3.85; T 3.31; R 2.8; L 1.9; W 1.62; N 3.34; M 2.69; F 1.78; E 3.42; G 3.44; Q 2.85; H 2.88; S 2.99
I16: C 3.44; P 4.45; K 3.42; T 3.62; N 3.8; E 4.29; S 3.78; G 3.84; Y 2.85; A 3.66; W 2.87; V 3.47; F 2.87; L 2.86; D 4.25; R 3.73; H 3.97; Q 4.28; M 3.62
L21: D 4.05; A 3.83; C 3.54
A18: E 4; G 3.44; K 3.16; D 3.45; T 3.74; S 3.3; L 2.53; R 2.71; I 2.13; Y 2.65; W 1.97; V 2.54; N 3.1; M 2.33; P 3.6; C 3.11; H 3.08; Q 3.34; F 2.73
Q7: E 3.52; C 2.79; W 2.36; F 2.3; M 2.7; Y 2.49; N 2.46; D 3.06; R 2.64; H 3.27; T 2.69; I 2.37; P 3.24; L 2.62; K 2.6; G 3.08; A 2.85; V 3.17; S 3.16
K5: D 3.56; M 3.01; F 3.2; T 3.68; Q 3.53; H 3.54; I 2.55; N 3.07; G 3.6; P 3.17; L 3.06; V 3.21; R 3.2; C 2.61; Y 3.03; E 3.5; W 2.75; A 3.45; S 3.5
S13: Q 3.53; V 2.65; H 2.71; Y 2.63; I 2.19; F 2.39; W 2.12; N 3.32; C 2.43; M 2.31; K 3.16; L 2.49; G 3.37; T 3.15; D 3.73; E 3.69; A 3.4; P 3.12; R 3.21
P14: Y 2.79; E 3.49; R 2.91; W 2.13; V 2.7; H 2.19; I 2.76; A 2.41; C 1.85; D 3.4; G 3.14; K 2.96; M 2.02; Q 2.87; L 2.4; N 3.29; T 2.55; F 2.24; S 2.55
Y11: L 3.26; V 3.29; H 3.73; T 3.79; C 3.32; M 3.16; K 3.53; Q 3.47; S 3.71; G 3.87; P 3.95; N 3.86; A 3.29; D 4.38; E 4.09; I 3.52; W 2.78; F 2.77; R 3.59
D8: H 2.51; P 2.91; A 2.65; T 2.56; E 3.21; M 2.25; S 2.63; K 2.54; G 3.06; W 1.68; Y 1.9; N 2.62; C 2.32; I 2.35; L 2.05; Q 2.5; R 2.28; F 1.87; V 2.66
I12: F 2.94; Y 3.37; T 3.76; E 3.83; V 3.71; C 3.23; N 3.46; H 3.29; A 3.49; S 3.91; G 3.82; D 4.16; R 3.58; W 2.64; K 3.83; P 3.57; M 3.48; L 3.16; Q 4.04
E15: L 1.99; T 2.63; R 2.64; Q 2.82; M 2.19; A 2.77; I 1.78; W 1.76; N 2.95; K 2.68; D 3.42; V 1.89; P 3.05; G 3.08; Y 1.84; C 2.25; S 3.09; F 2.07; H 2.74
